Our source for the Kd values is patent publication US20200087416A1.

Experiment [1] deals with human PCSK9 (PCSK9 antigen, SEQ ID NO. 53) (human). The experiment in a line: MSD-SET, Fab with biotin-PCSK9 in solution, IgG on plate, pH 7.4.
A further experiment concerns the target murine PCSK-9 (murine) (UniProt Q80W65). The experiment is described as above.
In experiment [2] the target is cynomolgus PCSK-9 (cynomolgus). Described as above.
Experiment [3] addresses human PCSK9 (PCSK9 antigen, SEQ ID NO. 53) (human). Nature of the experiment: MSD-SET, Fab with biotin-PCSK9 in solution, IgG on plate, pH 6.0.
Experiment [4] addresses cynomolgus PCSK-9 (cynomolgus). The experiment in a line: BLI (ForteBio), IgG on AHQ sensor, 100 nM antigen. For orientation: In BLI a coated tip is dipped into the sample, and binding shifts an interference pattern.

B1: Bococizumab Fab (Fab, INN chains, looked up, V domains shown)
VH: QVQLVQSGAEVKKPGASVKVSCKASGYTFTSYYMHWVRQAPGQGLEWMGEISPFGGRTNYNEKFKSRVTMTRDTSTSTVYMELSSLRSEDTAVYYCARERPLYASDLWGQGTTVTVSS
VL: DIQMTQSPSSLSASVGDRVTITCRASQGISSALAWYQQKPGKAPKLLIYSASYRYTGVPSRFSGSGSGTDFTFTISSLQPEDIATYYCQQRYSLWRTFGQGTKLEIK
modifications: Fab
In general, Kd refers to the concentration at which binding is half-saturated. A lower Kd goes with higher affinity. As to B1, the dissociation constant Kd in experiment [1] amounted to 0.021 nM; with murine PCSK-9 (murine), 0.065 nM; in experiment [2], 0.026 nM; in experiment [3], 0.038 nM.

B2: Lodelcizumab (antibody, INN chains, looked up, V domains shown)
VH: QVQLVQSGAEVKKPGASVKVSCKASGYTFSTMYMSWVRQAPGQGLEWMGRIDPANEHTNYAQKFQGRVTMTRDTSISTAYMELSRLTSDDTAVYYCARSYYYYNMDYWGQGTLVTVSS
VL: QIVLTQSPATLSVSPGERATLSCRASQSVSYMHWYQQKPGQAPRLLIYGVFRRATGIPDRFSGSGSGTDFTLTIGRLEPEDFAVYYCLQWSSDPPTFGQGTKLEIK
Turning to B2, the Kd in experiment [4] was 2.34 nM.

B3: Lodelcizumab Fab (Fab, INN chains, looked up, V domains shown)
VH: QVQLVQSGAEVKKPGASVKVSCKASGYTFSTMYMSWVRQAPGQGLEWMGRIDPANEHTNYAQKFQGRVTMTRDTSISTAYMELSRLTSDDTAVYYCARSYYYYNMDYWGQGTLVTVSS
VL: QIVLTQSPATLSVSPGERATLSCRASQSVSYMHWYQQKPGQAPRLLIYGVFRRATGIPDRFSGSGSGTDFTLTIGRLEPEDFAVYYCLQWSSDPPTFGQGTKLEIK
modifications: Fab
B3 gave a Kd in experiment [2] of 0.1 nM.
